Experimental data published in US20210275590A1 (LEGEND BIOTECH IRELAND, published 2021).
Residue numbers refer to the chain shown, from its start.

B1: AS67147 sdAb (VHH)
VHH: EVQLVESGGGLVQAGGSLRLSCAASGDTFSFAAMGWYRQAPGKQRELVASISFSGGESTVYANSVRGRFTISGDNAKNRVSLEMNNLKPEDTAVYYCTAKRGPYLPGPEYWGQGTQVTVSS
notes: Camel sdAb
B2: AS67190 sdAb (VHH)
VHH: QVQLVESGGGLVQAGGSLRLSCAASGNVFRFNIMGWYRQAPGNQRELVASIDDGGDRSYADSVEGRFTISRENGKKIMYLQMNSLKPEDTAVYYCAAGLGTYLNGRVSMATNYWGQGTQVTVSS
notes: Camel sdAb
B3: AS49873 sdAb (VHH)
VHH: EVQLVESGGGSVQAGGSLRLSCVASGYTYGINCMGWFRQAPGKEREGIAAISTGGGTTGVADSVKGRFTISQDNAKNTVYLQMNSLKPEDTAMYYCAARSTYSGYACVYSEVNGYNYRGQGTQVTVSS
notes: Camel sdAb
B4: AS66873 sdAb (VHH)
VHH: QVQLVESGGGLVQPGGSLRLSCAASGSIFSITAMGWYRQAPGKQRELVATVTSGGSTKYVESVKGRFTISNDNAKNTVYLQMNSLKPEDTAVYYCWADIVARWNSDYNVYDDYWGQGTQVTVSS
notes: Camel sdAb
B5: AS49264 sdAb (VHH)
VHH: EVQLVESGGGSVQAGGSLRLSCAASGYTYSINCMGWFRQAPGKEREGVAVISTGGGRTDYRDSVKGRFTISQDNAKNTVYLQMNSLKPEDTAMYYCAGKTTYPGYGCGLGRSAYNYWGQGTQVTVSS
notes: Camel sdAb
B6: AS50502 sdAb (VHH)
VHH: EVQLVESGGGSVQAGGSLRLSCAAPGYTYCTYDMMWYRQALGKEREFVSAVYTDGSTLYADSVKGRFTISQDNAKNTLYLQMNSLKPEDTAMYYCKTETAVTYDKPCDFWGQGTQVTVSS
notes: Camel sdAb
B7: AS49175 sdAb (VHH)
VHH: EVQLAESGGGLVQAGGSLRLSCTASGFTFDDYVMGWFRQAPGKEREGVSCISWSGDTTYYADSVKGRFTASRDNAKNTLYLQMNSLKPEDTAMYYCAADQGKCSLASAEPDDMDYWGRGTLVTVSS
notes: Camel sdAb
B8: AS50073 sdAb (VHH)
VHH: B7 VHH with E1Q, A5V, D31N, S52G, D56G, T57S, A70I, A106G, E109G, P110A
notes: Camel sdAb
B9: AS49226 sdAb (VHH)
VHH: EVQLAESGGGSVQAGGSLRLSCAASGVTFSSTSVAWFRQAPGKEREGVAYIYTGDSSTYYADSVKGRFTIAQDNAKNAVYLQMNSLKPEDTAMYYCAADGFLLNHRSYQYWGQGTQVTVSS
notes: Camel sdAb
B10: AS49889 sdAb (VHH)
VHH: EVQLVESGGGSVQAGGSLRLSCVASGYTWCRYDMSWYRQAPGKEREFVSGFDNDGTTSYADSVKGRFTISQDNDKNTVYLQMNSLKPEDTAMYYCKEDRSRGSLDGRVCPLSYDNWGQGTQVTVSS
notes: Camel sdAb
B11: AS49814 sdAb (VHH)
VHH: QIQLVESGGGSVQAGGSLRLSCVASGYIGGHYYMGWFRQAPGKEREGVAAIDIDSDGRTRYAGSVQGRFTISQDNAKNTLHLQMSSLKPEDTGMYYCAVGVGWVPARLTPQAVSYWGKGTLVTVSS
notes: Camel sdAb
B12: AS59101 sdAb (VHH)
VHH: AVQLVESGGGLVQPGGSLRLSCAVSGIYYSINLMGWYRQAPGKPRELAASITDSGITNYADSVKGRFTISRDNAKNTVHLQMNNLKPEDTAVYYCKPMGVNWGQGIQVTVSS
notes: Camel sdAb
B13: AS58930 sdAb (VHH)
VHH: AVQLVESGGGLVQAGGSLRLSCTASGSILRTYEMGWYRQAPGSQRELVASITSDGDTNYVDSVKGRFTISRDNGKNMVYLQMNSLKPDDTAVYYCNAVILSPSYSMRTSHWGQGTQVTVSS
notes: Camel sdAb; also called AS58930C
B14: AS60399 sdAb (VHH)
VHH: QVKLEESGGGLVQEGGSLRLSCAASGTIYTDSTIYWYRQAPGKQRELVASITRGGDTKYVDSVKGRFAISSDNAKNTVYLQMNSLKPEDTAVYYCNLYYRTGPSSYYRNDWGQGTQVTVSS
notes: Camel sdAb
B15: AS49902 sdAb (VHH)
VHH: EVQLVESGGGLVQAGGSLRLSCTASGFTFDDYVMGWFRQAPGKEREGVSCISWSGDTTYYADSVKGRFTVSRDNAKNTLYLQMNSLKPEDTAMYYCAADQSLCSLAPPYNYAYWGQGTQVTVSS
notes: Camel sdAb

What follows are binders tested against T1, Recombinant human CD33 protein (human, UniProt P20138 18-259) (assay: SPR (BIACORE T200), crude sdAb captured via affinity tag, 100 nM human CD33 as analyte).
T1 construct: Obtained commercially; also called huCD33
Protocol: The sdAb proteins in the supernatant were analyzed for their ability to bind to CD33 ECD proteins by ELISA and CD33-overexpressing MV4-11 cell lines by FACS. All binders were sequenced and some were subjected to for further characterization including affinity ranking by surface plasmon resonance (SPR) on a BIACORE® T200 instrument. The experiments were carried out as follows: the crude sdAb proteins were captured through an affinity tag onto the sensorchip. High-concentration (100 nM) of human CD33 flowed over the sensorchip surface, and was allowed to bind the antibody fragments. On-rate (kₒₙ) and off-rate (koff) were roughly calculated based on the association and dissociation of one antigen concentration, and were used to estimate the equilibrium dissociation constant (KD).

T1 sequence (P20138 18-259 limits assumed): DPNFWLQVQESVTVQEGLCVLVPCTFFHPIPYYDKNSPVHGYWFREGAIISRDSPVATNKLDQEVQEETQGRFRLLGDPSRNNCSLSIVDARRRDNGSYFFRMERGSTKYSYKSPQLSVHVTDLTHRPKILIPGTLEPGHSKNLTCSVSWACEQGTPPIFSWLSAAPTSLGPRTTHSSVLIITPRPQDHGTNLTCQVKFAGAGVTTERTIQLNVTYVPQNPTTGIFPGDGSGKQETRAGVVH

| Binder | binding result |
| --- | --- |
| B1 | binds |
| B2 | binds |
| B3 | binds |
| B4 | binds |
| B5 | binds |
| B6 | binds |
| B7 | binds |
| B8 | binds |
| B9 | binds |
| B10 | binds |
| B11 | binds |
| B12 | binds |
| B13 | binds |
| B14 | binds |
| B15 | binds |
